One experiment has as its target calmodulin (Bos taurus) (UniProt P62157). Conditions: cited from earlier work.
The target of experiment [1] is light-activated unphosphorylated rhodopsin (UniProt P02699 1-348, light-activated).

What is called Kd is the free concentration of one partner at which half of the binding sites on the other are occupied at equilibrium, for simple one-to-one binding.

light-activated unphosphorylated rhodopsin, sequence (P02699 whole entry): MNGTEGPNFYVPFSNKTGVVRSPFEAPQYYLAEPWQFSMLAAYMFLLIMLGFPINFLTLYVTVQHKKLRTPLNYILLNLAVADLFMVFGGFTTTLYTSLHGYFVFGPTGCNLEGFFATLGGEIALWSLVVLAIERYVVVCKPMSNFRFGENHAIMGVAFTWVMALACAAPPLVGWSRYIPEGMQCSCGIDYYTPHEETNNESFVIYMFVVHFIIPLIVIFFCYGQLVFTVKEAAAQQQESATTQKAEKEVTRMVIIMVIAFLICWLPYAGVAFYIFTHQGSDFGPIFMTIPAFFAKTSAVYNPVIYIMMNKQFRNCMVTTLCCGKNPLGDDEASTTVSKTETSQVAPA

In the case of arrestin-1 (from UniProt P08168), the Kd with calmodulin (Bos taurus) is 7 µM.

B1: arrestin-1 3A+R175E combination mutant (natural protein, UniProt P08168 1-404, looked up)
chain: MKANKPAPNHVIFKKISRDKSVTIYLGKRDYIDHVERVEPVDGVVLVDPELVKGKRVYVSLTCAFRYGQEDIDVMGLSFRRDLYFSQVQVFPPVGASGATTRLQESLIKKLGANTYPFLLTFPDYLPCSVMLQPAPQDVGKSCGVDFEIKAFATHSTDVEEDKIPKKSSVRLLIEKVQHAPRDMGPQPRAEASWQFFMSDKPLRLAVSLSKEIYYHGEPIPVTVAVTNSTEKTVKKIKVLVEQVTNVVLYSSDYYIKTVAAEEAQEKVPPNSSLTKTLTLVPLLANNRERRGIALDGKIKHEDTNLASSTIIKEGIDKTVMGILVSYQIKVKLTVSGLLGELTSSEVATEVPFRLMHPQPEDPDTAKESFQDENAAAEEFARQNLKDAGEYKEEKTDQEAAMDE
As to B1, in experiment [1], the “percent of the maximum binding achieved at 37°C” value worked out at 26%.

These data come from PMC3196764 (Progress in retinal and eye research, 2011).
